Where “and” joins values, the source holds several entries; their conditions need not be identical. Identical values can stand only once.
Conditions: whole UniProt chain shown
[1] = Geobacillus stearothermophilus, pH 5.4, 25 °C, Thermal, CD, acetate 20 mM, NaCl 100 mM, reversible: yes
[2] = Geobacillus stearothermophilus, pH 5.4, 25 °C, Urea, CD, acetate 20 mM, NaCl 100 mM, reversible: yes
[3] = Geobacillus stearothermophilus, pH 5.4, 25.15 °C, Urea, CD, sodium acetate 10 mM, Nacl 100 mM
[4] = Geobacillus stearothermophilus, pH 5.4, Thermal, CD, acetate 20 mM, NaCl 100 mM, reversible: yes
[5] = Geobacillus stearothermophilus, pH 5.45, 10 °C, GdnHCl, CD, sodium acetate,sodium sulfate
[6] = Geobacillus stearothermophilus, pH 5.45, 25 °C, Urea, CD, Sodium phosphate 20 mM, NaCl 100 mM, reversible: Yes
[7] = Geobacillus stearothermophilus, pH 5.45, 25 °C, Urea, CD, sodium phosphate 10 mM, NaCl 100 mM, reversible: Yes
[8] = Geobacillus stearothermophilus, pH 5.45, 25 °C, Urea, CD, sodium phosphate 20 mM, sodium chloride 100 mM, reversible: yes
[9] = Geobacillus stearothermophilus, pH 5.45, 25 °C, Urea, Fluorescence, Sodium phosphate 20 mM, NaCl 100 mM, reversible: Yes
[10] = Geobacillus stearothermophilus, pH 5.5, 25 °C, Urea, CD, NaAc 20 mM, NaCl 100 mM
[11] = Geobacillus stearothermophilus, pH 5.5, 25 °C, Urea, CD, Sodium phosphate 20 mM, NaCl 100 mM
[12] = Geobacillus stearothermophilus, pH 8, 25 °C, GdnHCl, CD, Tris-HCl 20 mM, sodium chloride 100 mM, reversible: yes
[13] = Geobacillus stearothermophilus, pH 8, 25 °C, Urea, CD, Sodium phosphate 20 mM, NaCl 100 mM, reversible: Yes
[14] = Geobacillus stearothermophilus, pH 8, 25 °C, Urea, CD, sodium phosphate 20 mM, sodium chloride 100 mM, reversible: yes
[15] = Geobacillus stearothermophilus, pH 8, 25 °C, Urea, Fluorescence, Sodium phosphate 20 mM, NaCl 100 mM, reversible: Yes

B1: Large ribosomal subunit protein bL9 wild type, P02417 (protein)
chain: MKVIFLKDVKGKGKKGEIKNVADGYANNFLFKQGLAIEATPANLKALEAQKQKEQRQAAEELANAKKLKEQLEKLTVTIPAKAGEGGRLFGSITSKQIAESLQAQHGLKLDKRKIELADAIRALGYTNVPVKLHPEVTATLKVHVTEQK
unfolding free energy (Geobacillus stearothermophilus, pH 5.4, 25 °C, GdnHCl, CD, phosphate 10 mM, NaCl 100 mM, reversible: yes): 2.1 kcal/mol | heat capacity change of unfolding [1]: 0.38 kcal/mol/K | unfolding free energy [1]: 2.18 kcal/mol | denaturant m value [2]: 0.48 kcal/mol/M | denaturant midpoint (higher = more stable) [2]: 3.96 M | unfolding free energy [2]: 1.9 kcal/mol | denaturant m value [3]: 0.66 kcal/mol/M | denaturant midpoint (higher = more stable) [3]: 6.5 M | unfolding free energy [3]: 4.3 kcal/mol | Tm [4]: 65.3 °C | heat capacity change of unfolding [4]: 0.38 kcal/mol/K | unfolding enthalpy (van 't Hoff) [4]: 26.3 kcal/mol | denaturant m value [5]: 1.52 kcal/mol/M | unfolding free energy [5]: 6.02 kcal/mol | unfolding free energy (Geobacillus stearothermophilus, pH 5.45, 25 °C, Thermal, CD, Sodium phosphate 20 mM, NaCl 100 mM, reversible: Yes (>90%)): 3.82 kcal/mol | denaturant m value [6]: 1.32 kcal/mol/M | unfolding free energy [6]: 3.32 kcal/mol | denaturant m value [7]: 0.66 kcal/mol/M | unfolding free energy [7]: 4.17 kcal/mol | denaturant m value [8]: 1.21 kcal/mol/M | unfolding free energy [8]: 3.91 kcal/mol | denaturant m value [9]: 1.24 kcal/mol/M | unfolding free energy [9]: 3.84 kcal/mol | denaturant m value [10]: 0.66 kcal/mol/M | unfolding free energy [10]: 4.3 kcal/mol and 5.85 kcal/mol | denaturant m value [11]: 0.66 kcal/mol/M | unfolding free energy [11]: 4.3 kcal/mol | Tm (Geobacillus stearothermophilus, pH 7.4, Thermal, CD, Tris 10 mM, NaCl 100 mM, reversible: yes(95-100%)): 77 °C | denaturant m value [12]: 2.24 kcal/mol/M | unfolding free energy [12]: 5.9 kcal/mol | denaturant m value [13]: 1.02 kcal/mol/M | unfolding free energy [13]: 6.45 kcal/mol | denaturant m value [14]: 1.02 kcal/mol/M | unfolding free energy [14]: 6.38 kcal/mol | denaturant m value [15]: 1.05 kcal/mol/M | unfolding free energy [15]: 6.49 kcal/mol | unfolding free energy (Geobacillus stearothermophilus, pH 8, Thermal, CD, Sodium phosphate 20 mM, NaCl 100 mM, reversible: Yes (>90%)): 5.77 kcal/mol

B2: Cytochrome b5 type B wild type, O43169 (protein)
chain: MSGSMATAEASGSDGKGQEVETSVTYYRLEEVAKRNSLKELWLVIHGRVYDVTRFLNEHPGGEEVLLEQAGVDASESFEDVGHSSDAREMLKQYYIGDIHPSDLKPESGSKDPSKNDTCKSCWAYWILPIIGAVLLGFLYRYYTSESKSS
denaturant midpoint (higher = more stable) (Homo sapiens, pH 7, 25 °C, GdmSCN, UV/visible spectrophotometer, MOPS 30mM): 1.86 M | Tm (Homo sapiens, pH 7, Thermal, UV/visible spectrophotometer, Potassium phosphate 50mM): 85.7 °C

B3: Arginine kinase wild type, P14208 (protein)
chain: MADAATIAKLEEGFKKLEAATDCKSLLKKYLSKDIFDSLKAKKTSLGATLLDVIQSGVENLDSGVGIYAPDAEAYSLFAPLFDPIIEDYHKGFKQTDKHPAKDFGDVSKFINVDPEGTFVISTRVRCGRSMEGYPFNPCLTEAQYKEMEEKVSSTLSGLEGELKGSYFPLTGMTKEVQQKLIDDHFLFKEGDRFLQAANACRYWPAGRGIYHNDNKTFLVWCNEEDHLRIISMQMGGDLGQVYRRLVSAVNDIEKRVPFSHHDRLGFLTFCPTNLGTTVRASVHIKLPKLAANREKLEEVAAKFSLQVRGTRGEHTEAEGGIYDISNKRRMGLTEFQAVKEMQDGILELIKIEKEM
unfolding free energy (Homarus gammarus, pH 7.4, 22 °C, GdnHCl, CD, Sodium phosphate 100 mM): 5.98 kcal/mol

B4: Metallocarboxypeptidase inhibitor wild type, P81511 (protein)
chain: MFLLVFLCCLHLVISSHTPDESFLCYQPDQVCCFICRGAAPLPSEGECNPHPTAPWCREGAVEWVPYSTGQCRTTCIPYVE
denaturant midpoint (higher = more stable) (Hirudo medicinalis, pH 8.4, 23 °C, GdnHCl, Fluorescence, Tris-HCl 0.1 M): 3.6 M | denaturant midpoint (higher = more stable) (Hirudo medicinalis, pH 8.4, 23 °C, GdnSCN, Fluorescence, Tris-HCl 0.1 M): 2.4 M

— FireProtDB
